Here are results for four substances from patent US20200024330A1.

Bounds are passed on as bounds.

Holding throughout (experiment): cell-based or functional assay
The target in assay [1] is HIV-1 Env of isolate MGRM-F1-012 (HIV-1).
Assay [2] deals with HIV-1 Env of isolate MGRM-A-011 (HIV-1).
Assay [3] has as its target HIV-1 Env of isolate MGRM-F1-010 (HIV-1).
In assay [4] the target is HIV-1 JR-CSF envelope protein (Env) on pseudotyped virus (HIV-1 isolate JR-CSF) (UniProt P20871).
Assay [5] addresses HIV-1 Env of isolate MGRM-A-010 (HIV-1).
Assay [6] concerns the target HIV-1 NL43 envelope glycoprotein (Env) (HIV-1).
The target in assay [7] is HIV-1 Env of isolate MGRM-F1-004 (HIV-1).
Assay [8] has as its target HIV-1 IAVI-C18 envelope glycoprotein (Env) on pseudovirus (HIV-1).
Assay [9] deals with HIV-1 JRCSF envelope glycoprotein (Env) (HIV-1) (UniProt P20871).
Assay [10] addresses HIV-1 Env of isolate MGRM-A-005 (HIV-1).
The target of assay [11] is HIV-1 NL43 envelope protein (Env) on pseudotyped virus (HIV-1 NL43).
Assay [12] has as its target HIV-1 Env of isolate MGRM-A-009 (HIV-1).
Assay [13] concerns the target HIV-1 MGRM-C-026 envelope glycoprotein (Env) (HIV-1).
The target in assay [14] is HIV-1 93IN905 envelope protein (Env) on pseudotyped virus (HIV-1 isolate 93IN905).
Assay [15] addresses HIV-1 Env of isolate MGRM-D-026 (HIV-1).
The target in assay [16] is HIV-1 Env of isolate MGRM-A-013 (HIV-1).
Assay [17] concerns the target HIV-1 Env of isolate MGRM-F1-006 (HIV-1).
Assay [18] has as its target HIV-1 Env of isolate MGRM-A-014 (HIV-1).
Assay [19] concerns the target HIV-1 Env of isolate MGRM-A-003 (HIV-1).
Assay [20] deals with HIV-1 Env of isolate VLGCA1 (HIV-1).
Assay [21] has as its target HIV-1 Env of isolate MGRM-A-008 (HIV-1).
Assay [22] deals with HIV-1 Env of isolate MGRM-A-002 (HIV-1).
Assay [23] addresses HIV-1 Env of isolate MGRM-A-004 (HIV-1).

On to 1496_C09 (PG9) (TCN-109) (antibody), for which the IC50 (µg/mL), pseudovirus neutralization was 0.023 µg/mL in [1]; 0.033 µg/mL in assay [2]; 0.012 µg/mL in [3]; 0.022 µg/mL in assay [5]; 0.175 µg/mL in assay [7]; 23.7 µg/mL in assay [15]. Besides, the IC50 (µg/mL), pseudovirus neutralization in [16] stood at 0.122 µg/mL; in assay [17] it was 7.25 µg/mL; in assay [18], 1.25 µg/mL; in assay [20] it was 0.069 µg/mL. Also, the IC50, pseudovirus neutralization, 1 hour Virus/Ab Incubation in [4] is less than 0.0025 µg/mL; in [11], 0.294 µg/mL; in assay [14], 0.144 µg/mL. Also, the figures for the IC50, pseudovirus neutralization, 18 hour Virus/Ab Incubation in assay [4], in assay [11] and in assay [14] were less than 0.0025 µg/mL, 38 µg/mL and 0.0619 µg/mL, respectively. Moreover, the IC50 neutralization in assay [6] amounted to 0.687 µg/mL; in assay [9], 0.0048 µg/mL; in assay [13], 0.113 µg/mL. Also, in assay [8], the IC90 (pseudovirus neutralization) worked out at 0.866 µg/mL. The IC50 came to 0.75 µg/mL in [10], 0.023 µg/mL in [12] and 1.94 µg/mL in [19].
On to PGT-121 (antibody), for which the IC50 (µg/mL), pseudovirus neutralization is more than 50 µg/mL in [2]; 2.44 µg/mL in assay [5]; more than 50 µg/mL in assay [21]; more than 50 µg/mL in assay [10]; 0.006 µg/mL in [12]; 0.013 µg/mL in assay [22]. Moreover, the IC50 (µg/mL), pseudovirus neutralization was 0.387 µg/mL in [16]; more than 50 µg/mL in [23]; 0.003 µg/mL in assay [18]; 0.435 µg/mL in [19]; more than 50 µg/mL in [20]. Besides, the IC50 neutralization in assay [6] was more than 10 µg/mL; in [9], 0.0343 µg/mL; in assay [13], 0.0034 µg/mL.
In the case of PGT-122 (antibody), the IC50 (µg/mL), pseudovirus neutralization in assay [2] was more than 50 µg/mL; in [5] it was 2.51 µg/mL; in assay [21], more than 50 µg/mL; in assay [10], more than 50 µg/mL; in [12], 0.012 µg/mL; in assay [22], 0.017 µg/mL. Besides, the IC50 (µg/mL), pseudovirus neutralization in [16] was 2.47 µg/mL; in [23], more than 50 µg/mL; in assay [18] it was 0.007 µg/mL; in assay [19] it was 3.79 µg/mL; in [20], more than 50 µg/mL. For the same substance, the IC50 neutralization is more than 10 µg/mL in assay [6], 0.0727 µg/mL in assay [9] and 0.0089 µg/mL in assay [13].
As for PGV04 (antibody), the IC50 (µg/mL), pseudovirus neutralization in [1] turned out to be 0.25 µg/mL; in assay [2] it was 0.09 µg/mL; in assay [3], 0.184 µg/mL; in [5], 0.205 µg/mL; in assay [7], 0.58 µg/mL; in assay [15], 1.76 µg/mL. Also, the IC50 (µg/mL), pseudovirus neutralization in assay [16] is 0.086 µg/mL; in [17], more than 50 µg/mL; in [18] it was 0.172 µg/mL; in [20], 0.024 µg/mL. The IC50 in assay [21] came to 0.555 µg/mL; in assay [10], 0.134 µg/mL; in assay [12], 0.033 µg/mL; in [22], 0.093 µg/mL; in [23], 0.175 µg/mL; in assay [19], 0.128 µg/mL.
